In patent US20220307159:

Key:
[1] = molecular target: eIF3 complex (detected via eIF3b) (Homo sapiens) (UniProt Q14152+P55884+Q99613+O15371+P60228+O00303+O75821+O15372+Q13347+O75822+Q9UBQ5+Q9Y262+Q7L2H7); experiment: pulldown; conditions: RIP-chip co-IP with anti-eIF3b, 4 C
LIN28A = molecular target: T1, LIN28A (UniProt Q9H9Z2); experiment: pulldown; conditions: RIP-chip microarray, TALON beads, 4 C
T1 sequence: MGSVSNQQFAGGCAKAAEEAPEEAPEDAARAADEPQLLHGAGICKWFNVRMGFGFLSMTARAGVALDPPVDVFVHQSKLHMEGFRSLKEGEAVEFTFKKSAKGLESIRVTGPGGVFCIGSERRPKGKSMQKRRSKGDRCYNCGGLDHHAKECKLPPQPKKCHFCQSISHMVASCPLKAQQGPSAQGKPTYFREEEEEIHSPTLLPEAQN

For “HIV_2014_Siegfried_nucs_1_753_2_Multi (HIV-1 gag IRES)”, which binding signal (top % (rank 568)) [1] is on record?
Its binding signal (top % (rank 568)) is 6.58.

For hsa-mir-532, which binding signal (Cy5 intensity (rank 10)) (LIN28A) is on record?
Its binding signal (Cy5 intensity (rank 10)) is 7.39.

How did the binding signal (Cy5 intensity (rank 6)) (LIN28A) turn out when pre-hsa-mir-940 was run?
Its binding signal (Cy5 intensity (rank 6)) is 7.5.

How did the binding signal (top % (rank 17)) [1] turn out when “HIV_2014_Siegfried_nucs_1_753_9 (HIV-1 gag IRES)” was run?
The binding signal (top % (rank 17)) was 0.2.
